# In the DeepSol protein solubility set:
# Experiment: soluble on expression in E. coli; label from the status in PepcDB or PDB records
row,Sequence,soluble on expression in E. coli
1,MCMYGGIYVNNGYSPMSSNQQNVSVEHDIIMRGRRVIDITGVKQVESFDSEEFLLETVMGFLTIRGQNLQMKNLDVEKGVVSIKGKVHEMLYIDENQGEKTKGFFSKLFKLEHHHHHH,soluble
2,MGSDKIHHHHHHMKIAILTTNQAADDSRLVATARKKGHSANLLDLRQMSIALRPSVADIYYQNELITHHFDAIIPRLNVSYTDYGINLLQQFICSNTYVSESPEALRLGRDKLKCLQHLLSKGLPFPTTAIAYTPDFFNAIMQQLQLPLVVKLIESTEGTGVFLARTHKEVDNLCKTFSLAGVSYLIQEFIAEAAGHDVRAFVVGNRVVAAMQRDSQDDDFRANVSLGAHSSAVTLSADEQELVLKATQSIGVHVAGVDFVRSNRGPLLLEINVSPDFTGEQGIEAITLRDVAADIIDYTVQHAEAFYQGRSKY,not soluble
3,MKIAYLGPKGSFSHHVVQTAFPHEELQAFANITDVIKAYEQGLVNYSVVPVENSIEGSVHETLDYLFHQAHIQAVAEIVQPIHQQLMVVPGHTKIEKIFSHPQALAQGKKFIDEQYPEAQIEVTASTAYAARFISEHPDQPFAAVAPRSSAEEYGLELIAEDIQEMEANFTRFWVLGAEKPSIPLQAQTEKMSLALTLPDNLPGALYKALSTFAWRGIDLTKIESCPLKTALGEYFFIIDVDYTDKDLVHFAQKELEAIGIQYKILGAYPIYPISDHGKERR,soluble
4,MSLATEQIQHIAIVGCVHGKYREMYRQLSEYEKSTGKEISFVICTGDMQTLRYEADLVYLKVPPKYKQMGDFHLYYEGKEKAPYLTLFIGGNHESSNVLLHLYNGGFVCFNMYYLGVCSCININGLRIVGVSGIYKSFDEKKPYTYPPSPNDVVSLFHTRNYVIQMLSNLSQSSQIDISLSHDWPQGIVMKGNYKQLYRFQPGFKKDGASLGSPINKVILNTLKPKYWISGHMHCEYHAEEGPTHFIALGKIGYKNAISYLDLPLKQKTDLEYDKDWVCNLIMTWPAFSNKAQFPDLSYSISELLSKRTKELDKKIIELWEKYIGLKIIYDSDTFDIQFTSRRFYIEKIYNELNINEGHHHHHH,soluble
5,VLTEMRADARVAILEELSEAELNFTLAKLDNLSLIEWAESLPDDIFSLALQLISRDELDLYDDAKQYDDDEVGHWADRKIATLPFNVSVGRAKKLLKTNLFESHQYMHLINRAHKFHGIVQYTDILTADDSVKINTLKLEDCLVLNVHQPLSESIEAIEHSAVPSVAIVDDENTLIGQLDWQFAINTQREIYETRLMAGTGMDEGDDLFSPIIKSSKKRGV,not soluble
6,MLNNLLQQATSPNGRARQYAIEHTVELTNLIPPTVSYESGGHTLIIGPTMLIERITEPLSSMASITLLSVDGEPGTQSNLYYADTVEISGFLGAFSVNVENHGKRVNLAQAAIGGNSFDIVLDMSLNGLMSEEVPVPGYFPVGRGYPKLADALEEIPTLMGTFDKPKYFRLDPDLCAHSSRGVKGCERCVDACPAGALSSEGSEQTGHRIQINPYLCQGVGTCATACPTEAIHYALPNPTDTQKFIERLLANYHQAGGEKPIVLICSSRHESYNVMALKVLPDNVIPVVVEELPSVGIDSWFAALVNGATQVLFAASRHMPPTIQRILNQEMSMAQSLLTHLGLPKETIDILYLESLREGMPVLCEQPLGLKLGDLIGNKRERLFTALDALAETLNAQPSVQPLSISAPYGTIECQTSDCTLCMSCVAVCPTRALHLAGDSPALRFIEQDCVQCGLCVKACPEQVLSATPQLNWNKAARQGVVTLHQEEPAKCLRCHKPFAPQSMITMLQTKLRGHSHFATPEALNRIAMCEDCRVVDMFEAMAHDPEQQLKY,not soluble
7,MLPRAEQKQQTRRALLDAAHQLMESGRGFGSLSLREVARTAGIVPTGFYRHFEDMDQLGLALVIEVGQTFRETIRLVRHNEFAMGGLIRASVKIFLERVAANRSQFLFLAREQYGGSLKVRQALGALREGISADLTADLAKMPKWQHLNADALSIIADLVVKSVFAMLPELIDPPPASLAPHLTPQAKITQQLRFIFIGARHWRGLGTHD,not soluble
8,MGSGRTWRELKEVFPKLARAKYYTRARYGYCRGYEAVDFVESVRWYYYVLSGLVVLDRPEAKHLEHHHHHH,not soluble
9,MLSRFSGKVALVTGSSNGIGRAAAVLFAKDGAKVTVTGRNAERLEETRQEILKSGVPESHVLSVATDLAAEKGQDELVNSTIQKFGRLDILVNNAGAAFNDDQGRVGVDQDVSVYDKIMQINMRSVVTLTQKAKEHLVKAKGEIVNVSSIAGTAHAQPGVMYYAMSKSALDQFTRCAAIDLIQYGVRVNSVSPGGVTTGFGEAMGMPSGAFEEMMKFMESRKECIPSGAVAKPIDIANIIAFLADRKLSSYIIGQSIVADGGSTLVLGMNAHNWADLMKQS,not soluble
